From PMC8908268 (The Journal of Biological Chemistry, 2022)
Where “and” joins values, the source holds several entries; their conditions need not be identical. Identical values can stand only once.

T1: Halo-tagged full-length Gads (Grb2-related adapter protein downstream of Shc), 1–322aa (UniProt O89100 1-322)
T1 sequence: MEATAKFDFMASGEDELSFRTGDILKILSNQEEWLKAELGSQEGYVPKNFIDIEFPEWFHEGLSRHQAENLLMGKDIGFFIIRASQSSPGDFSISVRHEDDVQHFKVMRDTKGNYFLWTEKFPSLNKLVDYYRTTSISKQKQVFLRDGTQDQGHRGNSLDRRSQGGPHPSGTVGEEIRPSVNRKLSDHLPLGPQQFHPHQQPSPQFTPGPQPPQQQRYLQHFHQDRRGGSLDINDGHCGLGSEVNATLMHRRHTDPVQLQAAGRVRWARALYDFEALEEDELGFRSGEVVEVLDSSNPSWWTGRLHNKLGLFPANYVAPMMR


Assays:
[1] = target: His-tagged, doubly phosphorylated LAT (48–233aa; pY132 and pY171) (UniProt O43561); experiment: co-sedimentation
[2] = target: T1, Halo-tagged full-length Gads …; experiment: co-sedimentation

% of protein binding to LUV [1] | binding result [2] | Binder
26.3% and 31.4% and 42.8% |  | Halo-tagged full-length Gads (Grb2-related adapter protein downstream of Shc), 1–322aa (natural protein) MEATAKFDFMASGEDELSFRTGDILKILSNQEEWLKAELGSQEGYVPKNFIDIEFPEWFHEGLSRHQAENLLMGKDIGFFIIRASQSSPGDFSISVRHEDDVQHFKVMRDTKGNYFLWTEKFPSLNKLVDYYRTTSISKQKQVFLRDGTQDQGHRGNSLDRRSQGGPHPSGTVGEEIRPSVNRKLSDHLPLGPQQFHPHQQPSPQFTPGPQPPQQQRYLQHFHQDRRGGSLDINDGHCGLGSEVNATLMHRRHTDPVQLQAAGRVRWARALYDFEALEEDELGFRSGEVVEVLDSSNPSWWTGRLHNKLGLFPANYVAPMMR
 | binds | SLP-76 tyrosine- and proline-rich domains (103–258aa with Y113F and Y173F mutations) (domain or fragment) GGWSSFEEDDFESPNDDQDGEDDGDYESPNEEEEAPVEDDADYEPPPSNDEEALQNSILPAKPFPNSNSMFIDRPPSGKTPQQPPVPPQRPMAALPPPPAGRNHSPLPPPQTNHEEPSRSRNHKTAKLPAPSIDRSTKPPLDRSLAPFDREPFTLG
